From patent US20140302035A1 (MERRIMACK PHARMACEUTICALS, published 2014)
One block for each binder: values may come before it.

Key:
[1] = target: T1, Human EpCAM-Fc-his tagged (human); assay: BLI (ForteBio Octet), repeat analysis, antibody on Protein A tips, recombinant polyhistidine-tagged EpCAM-Fc in solution, 1:1 model
T1 construct: also called Recombinant polyhistidine-tagged EpCAM-Fc; recombinant EpCAM
Experimental: (§1) For Octet analysis, all reagents and samples are brought to room temperature. Protein A sensor tips (ForteBio, #18-5010) are hydrated for 10 minutes in 1×PBS. Assay steps include: 1-2 minutes of equilibration in 1×PBS, 4 minutes of antibody loading (concentration of 50 μg/ml in 1×PBS), 1-2 minutes of baseline stabilization, 4 minutes of antibody:antigen association, and 4 minutes of antibody:antigen dissociation. 1×PBS is used as the matrix throughout. Data are analyzed with Octet Data Analysis software, processed, and fit to a 1:1 binding model to determine kinetic parameters (Kd, kₒₙ and kdiss).
Table A-3 describes a repeat analysis for Ab#5, Ab#7, and Ab#13. For the repeat experiment, Kd and kdiss values for Ab#5, Ab#7, and Ab#13 are substantially equivalent to those determined for Ab#5, Ab#7, and Ab#13 in the initial experiment.

[2] = target: T1, Human EpCAM-Fc-his tagged; assay: BLI (ForteBio Octet), antibody loaded on Protein A tips, recombinant polyhistidine-tagged EpCAM-Fc in solution, 1:1 model
Experimental: as §1
Table A-2 describes approximate EpCAM binding affinity and dissociation rate as determined for Ab#1, Ab#2, Ab#3, Ab#4, Ab#5, Ab#6, Ab#7, Ab#8, Ab#9, Ab#10, Ab#11, Ab#12, and Ab#13.

cMet-his = target: T2, cMet-his (Homo sapiens (Human), UniProt P08581 25-933); assay: BLI (ForteBio Octet), antibody loaded on Protein A tips, his tagged cMET in solution, 1:1 model
T2 construct: also called his tagged cMET; Recombinant polyhistidine-tagged c-Met
Experimental: Protocol: All reagents are equilibrated and samples are brought to room temperature. Protein A sensor tips (Fortebio, #18-5010) are hydrated for 10 min in 1×PBS. Kinetic assays are run using the Octet software and procedure per manufacturer's instruction. Assay steps typically include: 1-2 min of equilibration in 1×PBS, 4 min of antibody loading (conc: 50 μg/mL in 1×PBS), 1-2 min of baseline stabilization, 4 min of antibody:antigen association, and 4 min of antibody:antigen dissociation. 1×PBS is used as the matrix throughout. Data are analyzed with Octet Data Analysis software, processed, and fit to the curve using 1:1 binding model to determine kinetic parameters (Kₐ, Kₒₙ and Koff)

T1 sequence (chain, as listed by the source): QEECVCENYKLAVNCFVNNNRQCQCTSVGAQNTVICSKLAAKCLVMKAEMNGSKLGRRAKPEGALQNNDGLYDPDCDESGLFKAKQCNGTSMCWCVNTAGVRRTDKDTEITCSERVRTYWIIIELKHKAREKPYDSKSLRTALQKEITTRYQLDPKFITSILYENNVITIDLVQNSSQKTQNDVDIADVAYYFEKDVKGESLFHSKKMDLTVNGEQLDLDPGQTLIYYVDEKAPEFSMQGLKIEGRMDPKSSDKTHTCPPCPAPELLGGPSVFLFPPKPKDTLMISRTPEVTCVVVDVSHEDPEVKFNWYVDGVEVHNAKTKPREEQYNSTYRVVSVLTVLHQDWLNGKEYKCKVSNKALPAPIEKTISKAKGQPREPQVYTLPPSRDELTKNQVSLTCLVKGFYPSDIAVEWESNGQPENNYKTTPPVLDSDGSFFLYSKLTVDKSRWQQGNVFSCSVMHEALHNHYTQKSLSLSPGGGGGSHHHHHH

- Kd [1]: 4.69 nM
- koff [1]: 0.000323 s⁻¹
- Kd [2]: 4.98 nM
- koff [2]: 0.00036 s⁻¹
B1: Ab#13 (bispecific antibody)
heavy: QLQLQESGPGLVKPSETLSLTCTVSGGSISSSVYYWSWIRQPPGKGLEWIGVIYPSGNTYYSPSLKSRVTISVDTSKNQFSLKLSSVTAADTAVYYCARTIYDLFDIWGQGTMVTVSSASTKGPSVFPLAPSSKSTSGGTAALGCLVKDYFPEPVTVSWNSGALTSGVHTFPAVLQSSGLYSLSSVVTVPSSSLGTQTYICNVNHKPSNTKVDKKVEPKSCDKTHTCPSCPAPEFLGGPSVFLFPPKPKDTLMISRTPEVTCVVVDVSQEDPEVQFNWYVDGVEVHNAKTKPREEQFNSKYRVVSVLTVLHQDWLNGKEYKCKVSNKGLPSSIEKTISKAKGQPREPQVYTLPPSREEMTKNQVSLSCAVKGFYPSDIAVEWESNGQPENNYKTTPPVLDSDGSFFLVSKLTVDKSRWQQGNVFSCSVMHEALHNHYTQKSLSLSKSCDKTGGGGSGGGGSGGGGSGGGGSGGGGSGGGGSGGGGSGGGGSCPSCPAPEFLGGPSVFLFPPKPKDTLMISRTPEVTCVVVDVSQEDPEVQFNWYVDGVEVHNAKTKPREEQFNSDYRVVSVLTVLHQDWLNGKEYKCKVSNKGLPSSIEKTISKAKGQPREPQVYTLPPSREEMTKNQVSLWCLVKGFYPSDIAVEWESNGQPENNYKTTPPVLDSDGSFFLYSKLTVDKSRWQQGNVFSCSVMHEALHNHYTQKSLSLSGECGGGGSGGGGSDIVMTQSPSSLSASVGDKATITCRSTKSLLHSNGITYLYWYLQKPGKAPKLLIYQMSNLASGVPDRFSSSGSGTEFTLTISSVQPEDEGTYYCAQNLEIPRTFGQGTKLEIKRTPSHNSHQVPSAGGPTANSGTSGSQVQLQQSGGGLVKPGESVKISCAASGYTFTNYGMNWVKQAPGKGLKWMGWINTYTGESTYADDFKGRFTFSLETSASAAYLQINSLRPEDTAVYFCARFAIKGDYWGQGTTVTVSS
light: DIQMTQSPSSVSASVGDRVTITCRASQGISSWLAWYQQKPGKAPKLLIYAASSLQSGVPSRFSGSGSGTDFTLTISSLQPEDFATYYCLQANSFPPTFGGGTKVEIKRTVAAPSVFIFPPSDEQLKSGTASVVCLLNNFYPREAKVQWKVDNALQSGNSQESVTEQDSKDSTYSLSSTLTLSKADYEKHKVYACEVTHQGLSSPVTKSFNRGEC
notes: Anti-c-Met Fab / tandem Fc / anti-EpCAM scFv TFcBA; also called Antibody #13

- Kd (cMet-his): 1.26 nM
B2: Onartuzumab-39 (antibody)
heavy: EVQLVESGGGLVQPGGSLRLSCAASGYTFTSYWLHWVRQAPGKGLEWVGMIDPSNSDTRFNPNFKDRFTISADTSKNTAYLQMNSLRAEDTAVYYCATYRSYVTPLDYWGQGTLVTVSSASTKGPSVFPLAPSSKSTSGGTAALGCLVKDYFPEPVTVSWNSGALTSGVHTFPAVLQSSGLYSLSSVVTVPSSSLGTQTYICNVNHKPSNTKVDKKVEPKSCDKTHTCPSCPAPEFLGGPSVFLFPPKPKDTLMISRTPEVTCVVVDVSQEDPEVQFNWYVDGVEVHNAKTKPREEQFNSKYRVVSVLTVLHQDWLNGKEYKCKVSNKGLPSSIEKTISKAKGQPREPQVYTLPPSREEMTKNQVSLSCAVKGFYPSDIAVEWESNGQPENNYKTTPPVLDSDGSFFLVSKLTVDKSRWQQGNVFSCSVMHEALHNHYTQKSLSLSPGKGGGGSGGGGSGGGGSGGGGSGGGGSGGGGSGGGGSGGGGSCPSCPAPEFLGGPSVFLFPPKPKDTLMISRTPEVTCVVVDVSQEDPEVQFNWYVDGVEVHNAKTKPREEQFNSKYRVVSVLTVLHQDWLNGKEYKCKVSNKGLPSSIEKTISKAKGQPREPQVYTLPPSREEMTKNQVSLWCLVKGFYPSDIAVEWESNGQPENNYKTTPPVLDSDGSFFLYSKLTVDKSRWQQGNVFSCSVMHEALHNHYTQKSLSLSPGK
light: DIQMTQSPSSLSASVGDRVTITCKSSQSLLYTSSQKNYLAWYQQKPGKAPKLLIYWASTRESGVPSRFSGSGSGTDFTLTISSLQPEDFATYYCQQYYAYPWTFGQGTKVEIKRTVAAPSVFIFPPSDEQLKSGTASVVCLLNNFYPREAKVQWKVDNALQSGNSQESVTEQDSKDSTYSLSSTLTLSKADYEKHKVYACEVTHQGLSSPVTKSFNRGEC
notes: Monovalent tandem Fc antibody: onartuzumab anti-c-Met Fab on IgG1/IgG4 hybrid TFc 39

- Kd (cMet-his): 1.2 nM
B3: Onartuzumab (antibody)
chain 1: not shown
chain 2: B2 light
chain 3: not shown

- Kd (cMet-his): 1.29 nM
B4: Onartuzumab-39EGY4-2224 (bispecific antibody)
heavy: EVQLVESGGGLVQPGGSLRLSCAASGYTFTSYWLHWVRQAPGKGLEWVGMIDPSNSDTRFNPNFKDRFTISADTSKNTAYLQMNSLRAEDTAVYYCATYRSYVTPLDYWGQGTLVTVSSASTKGPSVFPLAPSSKSTSGGTAALGCLVKDYFPEPVTVSWNSGALTSGVHTFPAVLQSSGLYSLSSVVTVPSSSLGTQTYICNVNHKPSNTKVDKKVEPKSCDKTHTCPSCPAPEFLGGPSVFLFPPKPKDTLMISRTPEVTCVVVDVSQEDPEVQFNWYVDGVEVHNAKTKPREEQFNSKYRVVSVLTVLHQDWLNGKEYKCKVSNKGLPSSIEKTISKAKGQPREPQVYTLPPSREEMTKNQVSLSCAVKGFYPSDIAVEWESNGQPENNYKTTPPVLDSDGSFFLVSKLTVDKSRWQQGNVFSCSVMHEALHNHYTQKSLSLSKSCDKTGGGGSGGGGSGGGGSGGGGSGGGGSGGGGSGGGGSGGGGSCPSCPAPEFLGGPSVFLFPPKPKDTLMISRTPEVTCVVVDVSQEDPEVQFNWYVDGVEVHNAKTKPREEQFNSDYRVVSVLTVLHQDWLNGKEYKCKVSNKGLPSSIEKTISKAKGQPREPQVYTLPPSREEMTKNQVSLWCLVKGFYPSDIAVEWESNGQPENNYKTTPPVLDSDGSFFLYSKLTVDKSRWQQGNVFSCSVMHEALHNHYTQKSLSLSGECGGGGSGGGGSEVQLVQSGAEVKKPGSSVKVSCKASGGTFSSYAIGWVRQAPGQGLEWMGGIIPIFGIANYAQKFQGRVTITADESTSSAYMELSSLRSEDTAVYYCAREEGPYCSSTSCYAAFDIWGQGTLVTVSSASTGGGGSGGGGSGGGGSGGGGSQSVLTQDPAVSVALGQTVKITCQGDSLRSYFASWYQQKPGQAPTLVMYARNDRPAGVPDRFSGSKSGTSASLAISGLQPEDEADYYCAAWDDSLNGYLFGAGTKLTVL
light: B2 light
notes: Anti-c-Met Fab / TFc 39E glycoform 4 / anti-EGFR 2224 scFv; also called Onartuzumab-39EGY4-224; onartuzumab-39Egy-2224

- Kd (cMet-his): 1.6 nM
B5: Onartuzumab-39EGY4-panitumumab (bispecific antibody)
heavy: EVQLVESGGGLVQPGGSLRLSCAASGYTFTSYWLHWVRQAPGKGLEWVGMIDPSNSDTRFNPNFKDRFTISADTSKNTAYLQMNSLRAEDTAVYYCATYRSYVTPLDYWGQGTLVTVSSASTKGPSVFPLAPSSKSTSGGTAALGCLVKDYFPEPVTVSWNSGALTSGVHTFPAVLQSSGLYSLSSVVTVPSSSLGTQTYICNVNHKPSNTKVDKKVEPKSCDKTHTCPSCPAPEFLGGPSVFLFPPKPKDTLMISRTPEVTCVVVDVSQEDPEVQFNWYVDGVEVHNAKTKPREEQFNSKYRVVSVLTVLHQDWLNGKEYKCKVSNKGLPSSIEKTISKAKGQPREPQVYTLPPSREEMTKNQVSLSCAVKGFYPSDIAVEWESNGQPENNYKTTPPVLDSDGSFFLVSKLTVDKSRWQQGNVFSCSVMHEALHNHYTQKSLSLSKSCDKTGGGGSGGGGSGGGGSGGGGSGGGGSGGGGSGGGGSGGGGSCPSCPAPEFLGGPSVFLFPPKPKDTLMISRTPEVTCVVVDVSQEDPEVQFNWYVDGVEVHNAKTKPREEQFNSDYRVVSVLTVLHQDWLNGKEYKCKVSNKGLPSSIEKTISKAKGQPREPQVYTLPPSREEMTKNQVSLWCLVKGFYPSDIAVEWESNGQPENNYKTTPPVLDSDGSFFLYSKLTVDKSRWQQGNVFSCSVMHEALHNHYTQKSLSLSGECGGGGSGGGGSQVQLQESGPGLVKPSETLSLTCTVSGGSVSSGDYYWTWIRQSPGKGLEWIGHIYYSGNTNYNPSLKSRLTISIDTSKTQFSLKLSSVTAADTAIYYCVRDRVTGAFDIWGQGTMVTSSASTGGGGSGGGGSGGGGSGGGGSDIQMTQSPSSLSASVGDRVTITCQASQDISNYLNWYQQKPGKAPKLLIYDASNLETGVPSRFSGSGSGTDFTFTISSLQPEDEATYFCQHFDHLPLAFGGGTKVEIKRT
light: B2 light
notes: Anti-c-Met Fab / TFc 39E glycoform 4 / anti-EGFR panitumumab scFv

- Kd (cMet-his): 0.9 nM
B6: Onartuzumab-39EGY4-cetuximab (bispecific antibody)
heavy: EVQLVESGGGLVQPGGSLRLSCAASGYTFTSYWLHWVRQAPGKGLEWVGMIDPSNSDTRFNPNFKDRFTISADTSKNTAYLQMNSLRAEDTAVYYCATYRSYVTPLDYWGQGTLVTVSSASTKGPSVFPLAPSSKSTSGGTAALGCLVKDYFPEPVTVSWNSGALTSGVHTFPAVLQSSGLYSLSSVVTVPSSSLGTQTYICNVNHKPSNTKVDKKVEPKSCDKTHTCPSCPAPEFLGGPSVFLFPPKPKDTLMISRTPEVTCVVVDVSQEDPEVQFNWYVDGVEVHNAKTKPREEQFNSKYRVVSVLTVLHQDWLNGKEYKCKVSNKGLPSSIEKTISKAKGQPREPQVYTLPPSREEMTKNQVSLSCAVKGFYPSDIAVEWESNGQPENNYKTTPPVLDSDGSFFLVSKLTVDKSRWQQGNVFSCSVMHEALHNHYTQKSLSLSKSCDKTGGGGSGGGGSGGGGSGGGGSGGGGSGGGGSGGGGSGGGGSCPSCPAPEFLGGPSVFLFPPKPKDTLMISRTPEVTCVVVDVSQEDPEVQFNWYVDGVEVHNAKTKPREEQFNSDYRVVSVLTVLHQDWLNGKEYKCKVSNKGLPSSIEKTISKAKGQPREPQVYTLPPSREEMTKNQVSLWCLVKGFYPSDIAVEWESNGQPENNYKTTPPVLDSDGSFFLYSKLTVDKSRWQQGNVFSCSVMHEALHNHYTQKSLSLSGECGGGGSGGGGSQVQLVESGGGVVQPGESLRISCAVSGFSLTNYGVHWVRQAPGKGLEWLGVIWSGGNTDYNTPFTSRLTISKDNSKSTVYFQMNSLRAEDTAVYYCARALTYYDYEFAYWGQGTLVTVSSASTGGGGSGGGGSGGGGSGGGGSDIVLTQSPSSLSVTPGEKVTFTCRASQSIGTNIHWYQQKPGQSPKLLIKYASESISGVPSRFSGSGSGTDFTLTINSVEAEDAATYYCQQNNNWPTTFGQGTKLEIK
light: B2 light
notes: Anti-c-Met Fab / TFc 39E glycoform 4 / anti-EGFR cetuximab scFv
